One molecule from patent publication US20170247434A1 (DEUTSCHES KREBSFORSCHUNGSZENTRUM, published 2017) can be followed below.

Assay [1] has as its target T1, Norovirus GII.10 Vietnam026 virus-like particles (VLPs) (Norovirus GII.10 Vietnam026).
T1 chain: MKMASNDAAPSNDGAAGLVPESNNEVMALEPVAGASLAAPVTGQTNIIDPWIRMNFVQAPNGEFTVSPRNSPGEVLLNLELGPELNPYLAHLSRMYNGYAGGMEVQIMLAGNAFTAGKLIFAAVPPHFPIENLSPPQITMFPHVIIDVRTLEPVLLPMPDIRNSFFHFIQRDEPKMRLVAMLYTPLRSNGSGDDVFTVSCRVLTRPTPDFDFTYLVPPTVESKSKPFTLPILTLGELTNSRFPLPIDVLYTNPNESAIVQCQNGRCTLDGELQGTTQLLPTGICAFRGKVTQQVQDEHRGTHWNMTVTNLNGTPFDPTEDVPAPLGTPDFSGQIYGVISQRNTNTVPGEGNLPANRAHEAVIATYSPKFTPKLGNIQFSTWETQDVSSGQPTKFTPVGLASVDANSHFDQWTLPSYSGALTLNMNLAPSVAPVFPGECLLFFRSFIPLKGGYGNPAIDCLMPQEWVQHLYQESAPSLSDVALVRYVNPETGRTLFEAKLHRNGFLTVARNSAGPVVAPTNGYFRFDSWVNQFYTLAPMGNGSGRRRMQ

Assay [2] concerns the target T2, Norovirus GII.4 NSW-2012 virus-like particles (VLPs) (Norovirus GII.4 NSW-2012, UniProt P54635 1-538).
T2 chain: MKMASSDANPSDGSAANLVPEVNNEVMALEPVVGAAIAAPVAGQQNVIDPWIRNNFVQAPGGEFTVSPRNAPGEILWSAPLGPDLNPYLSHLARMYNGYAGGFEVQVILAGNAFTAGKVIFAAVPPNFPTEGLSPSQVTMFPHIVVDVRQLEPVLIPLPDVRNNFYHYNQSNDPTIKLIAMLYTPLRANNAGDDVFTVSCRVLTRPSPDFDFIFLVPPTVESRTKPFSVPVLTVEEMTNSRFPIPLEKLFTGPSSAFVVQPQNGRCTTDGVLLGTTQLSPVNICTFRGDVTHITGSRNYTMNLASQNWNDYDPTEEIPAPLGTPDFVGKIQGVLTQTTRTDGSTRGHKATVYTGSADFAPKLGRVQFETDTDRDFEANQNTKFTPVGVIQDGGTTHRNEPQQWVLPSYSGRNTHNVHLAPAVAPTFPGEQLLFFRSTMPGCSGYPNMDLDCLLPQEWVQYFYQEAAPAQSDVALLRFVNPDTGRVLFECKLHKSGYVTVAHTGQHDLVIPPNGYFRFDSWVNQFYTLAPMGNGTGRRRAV

For assay [3], the target named is T3, Norovirus GI.1 Norwalk virus virus-like particles (VLPs) (Norovirus GI.1 Norwalk virus, UniProt Q83884 1-530).
T3 construct: also called GI.1 VLPs; the member of genogroup I included in this study
T3 sequence: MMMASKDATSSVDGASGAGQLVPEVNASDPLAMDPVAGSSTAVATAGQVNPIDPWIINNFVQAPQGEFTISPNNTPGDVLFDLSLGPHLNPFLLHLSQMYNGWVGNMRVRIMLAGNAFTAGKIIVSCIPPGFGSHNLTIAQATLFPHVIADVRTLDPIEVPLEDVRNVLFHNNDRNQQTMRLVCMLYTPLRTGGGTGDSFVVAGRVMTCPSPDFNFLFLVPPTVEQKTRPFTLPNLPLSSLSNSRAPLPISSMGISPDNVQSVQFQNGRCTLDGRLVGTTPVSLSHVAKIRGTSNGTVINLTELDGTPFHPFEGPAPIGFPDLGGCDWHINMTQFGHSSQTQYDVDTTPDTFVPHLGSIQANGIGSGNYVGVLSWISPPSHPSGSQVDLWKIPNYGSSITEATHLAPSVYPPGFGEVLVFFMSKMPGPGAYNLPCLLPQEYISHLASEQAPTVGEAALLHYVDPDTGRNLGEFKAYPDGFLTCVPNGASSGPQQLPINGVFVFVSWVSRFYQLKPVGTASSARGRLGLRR
Put plainly: direct ELISA; plates coated with VLPs; His-tagged nanobody serially diluted from ˜10 µM; anti-His HRP. In general terms: An ELISA detects its analyte on a solid surface through an enzyme-linked reagent.

Assay [4] deals with T2, Norovirus GII.4 NSW-2012 virus-like …. In words: direct ELISA; plates coated with 2 µg/ml VLPs; His-tagged nanobody serially diluted from ˜10 µM; anti-His HRP.
Assay [5] concerns the target T4, Norovirus GII.12 Hiro virus-like particles (VLPs) (Norovirus GII.12 Hiro).
T4 construct: also called GII.12 VLPs
The description is as above.

Assay [6] deals with T5, P domain of norovirus GII.10 (Vietnam026) (Norovirus GII.10 Vietnam026).
T5 construct: domain: P domain; also called GII.10 P domain; GII.10 P domains
In words: direct ELISA; plates coated with 7 µg/ml GII.10 P domain; His-tagged nanobody serially diluted from ˜10 µM; anti-His HRP.

Assay [7] concerns the target T1, Norovirus GII.10 Vietnam026 virus-like …. In words: direct ELISA; plates coated with 2 µg/ml VLPs; His-tagged nanobody serially diluted from ˜10 µM; anti-His HRP; detection limit OD 0.15.

B1: Nano-85 (VHH)
VHH: DVQLVESGGGLVQPGGSLRLSCAASGSIFSIYAMGWYRQAPGKQRELVASISSGGGTNYADSVKGRFTISGDNAKNTVYLQMNSLKPEDTAVYYCKREDYSAYAPPSGSRGRGTQVTVSS
notes: also called the Nanobody; single-domain antibody (VHH) of the invention
As a reminder, the IC50 is the concentration needed to halve the response being measured. Read a high IC50 as weaker potency. In the case of B1, the IC50 in assay [1] and in assay [2] was less than 10 µg/mL throughout. Also, the “dilution at which VLPs were detected” value in assay [3] was found to be 4000 fold dilution; in assay [4], 32000 fold dilution; in assay [5] it was 32000 fold dilution; in assay [7], 64000 fold dilution. The “dilution at which P domains were detected” value in assay [6] came to 17800 fold dilution.
